Measured values taken from patent US11932880B2, “Enzyme and method for assaying pentosidine using same” (priority 2018, dated 2024).

How the values were obtained:
[1] = Thermal stability of PenOX2 (residual activity after 10 minutes treatment); format: physicochemical; conditions: treated 10 minutes at respective temperatures; residual activity measured at pH 7.5, 37° C.; FIG. 9
Procedure: (§1) 600 μL of an arbitrary buffer, 400 μL of deionized water solution in which 3.99 U/mL peroxidase, 1.8 mM 4-aminoantipyrine and 2 mM TOOS were dissolved, and 150 μL of deionized water were incubated at an arbitrary temperature for 10 minutes. Then, 50 μL of the enzyme solution having been stored on ice and 400 μL of a solution of 4 mM pentosidine dissolved in a 100 mM potassium phosphate buffer (pH 8.0) having been incubated at an arbitrary temperature for 10 minutes were added thereto, followed by stirring and reacting at an arbitrary temperature for 3 minutes. A change over time of A555 during the reaction was measured using a spectrophotometer (U-3900, manufactured by Hitachi High-Tech Science Corporation). An elapsed time from the start of the measurement of 20 seconds to 60 seconds—A555 change was regarded as an activity value.
Residual activity obtained when the enzyme solution was treated for 10 minutes at respective temperatures was evaluated by performing the activity measurement described above by using a potassium phosphate buffer (final pH in the activity measurement: pH 7.5, final concentration of 100 mM) at 37° C.

[2] = Pentosidine quantitative test (DA-67/peroxidase, A658, Bio Majesty JCA-BM1650); format: biochemical; conditions: 0.2-4.0 μM pentosidine solutions, 37° C., 5 minutes; ΔA658 correlated with final pentosidine concentration (FIG. 4)
Procedure: The following reagents were prepared to measure pentosidine by using Bio Majesty JCA-BM1650 (manufactured by JEOL Ltd.).
0.2 μM, 0.4 μM, 0.6 μM, 1.0 μM, 2.0 μM or 4.0 μM pentosidine solution
25 μL of the sample was added to 50 μL of the first reagent, and the resultant was incubated at 37° C. for 5 minutes. Then, 25 μL of the second reagent was added thereto to allow a pentosidine oxidation reaction owing to PenOX2 and a detection reaction for hydrogen peroxide generated through the reaction to proceed at 37° C. for 5 minutes.
In the detection reaction for hydrogen peroxide, simultaneously with consumption of […], DA-67 is oxidized into methylene blue to present the color, and the absorbance (A658) is increased. As an example, the relationship between the elapsed time after the mixture of the sample (4.0 μM pentosidine solution) and the first reagent and the absorbance (A658) is shown in FIG. 3. It was confirmed that A658 increased immediately after the addition of the second reagent containing PenOX2.
Subsequently, an A658 increment (AA) caused by the oxidation of pentosidine was calculated in accordance with the following equation: ΔA=(absorbance 5 min after addition of second reagent)−(absorbance immediately before addition of second reagent×0.75)

[3] = Range of stable pH of PenOX2 (residual activity after 25° C., 20 hours); format: physicochemical
Procedure: as §1
Treatments were performed respectively using, as a buffer solution, a 100 mM citric acid-200 mM potassium phosphate buffer (pH 3.0 to 6.5), a 200 mM potassium phosphate buffer (pH 6.5 to 8.0) and a 200 mM glycine buffer (pH 8.0 to 10.0) at respective pH and at 25° C. for 20 hours, and then, residual activity of PenOX2 was measured.

[4] = Enzyme activity measurement with pentosidine as substrate (A555 change, U/mL); format: biochemical
Procedure: as §1
Besides, an amount of the enzyme generating 1 μmol of hydrogen peroxide per minute at 37° C. was defined as one unite (U), and the activity was calculated in accordance with the following equation. Activity (U/mL)={(ΔAs−ΔA0)×1.6×df}/(39.2×0.5×0.05) • ΔAs: change of A555 per minute of reaction solution • ΔA0: change of A555 per minute of control experiment • 1.6: volume (mL) of whole reaction solution • df: dilution factor • 39.2: millimolar absorbance coefficient (mM^−1-cm-1) of quinoneimine pigment generated through reaction • 0.5: molar number of quinoneimine pigment generated by 1 mol of hydrogen peroxide • 0.05: volume (mL) of enzyme solution
A 50 mM citric acid-100 mM potassium phosphate buffer (pH 4.0 to 7.5, a final concentration), a potassium phosphate buffer (pH 6.5 to 8.0, a final concentration of 100 mM), and a glycine buffer (pH 8.0 to 11.0, a final concentration of 100 mM) were prepared, and these were used to perform an enzymatic reaction at respective pH at a temperature of 37° C. […] Therefore, it was determined that the optimum pH of PenOX2 is pH 6.5 to 8.0, and that the most suitable optimum pH is pH 7.5.
A potassium phosphate buffer (pH 7.5) having a final concentration of 50 mM was used to perform the activity measurement of PenOX2 at various temperatures. The highest activity was obtained around 50° C., and a temperature range for attaining 80% or more of this highest activity was 37° C. to 50° C. Therefore, it was determined that the range of the optimum temperature of PenOX2 is 37° C. to 50° C.
The above-described activity measurement method was employed to perform activity measurement using a potassium phosphate buffer (final pH in the activity measurement: pH 7.5, final concentration of 50 mM) at 37° C., and an activity value (U/mL) was obtained by using the aforementioned equation.
As described above, both PenOX1 and PenOX2 had the pentosidine oxidase activity. […] Subsequently, the following three enzymes were purchased, and the above-described activity measurement method was employed for confirming their pentosidine oxidase activity using a potassium phosphate buffer (pH 7.5, final concentration of 100 mM) at 37° C. The amino acid sequence homologies with PenOX1 and PenOX2 and the pentosidine oxidase activities of these enzymes were as follows.

[5] = Measurement of L-arginine oxidation activity of hypha extract; format: biochemical; conditions: intracellular recombinant PenOX2 after anion exchange and ultrafiltration concentration
Procedure: 200 μL of each crude enzyme solution was mixed with a 380 μL of 150 mM potassium phosphate buffer solution (pH 7.0) in which 7.1 U/mL peroxidase, 0.70 mM 4-aminoantipyrine and 0.79 mM TOOS were dissolved. The resultant mixture was incubated at 37° C. for 5 minutes, and 20 μL of a 60 mM L-arginine solution was added thereto, followed by stirring, and reacting at 37° C. for 5 minutes. A change over time of A555 during the reaction was measured using a spectrophotometer (U-3900, manufactured by Hitachi High-Tech Science Corporation). A control experiment was performed by adding 20 μL of ion-exchanged water instead of 20 μL of the 60 mM L-arginine solution. An amount of the enzyme generating 1 μmol of hydrogen peroxide per minute at 37° C. was defined as one unit (U), and the activity was calculated in accordance with the following equation: Activity (U/mL)={(ΔAs−ΔA0)×0.6×df}/(39.2×0.5×0.2) • ΔAs: change of A555 per minute of reaction solution • ΔA0: change of A555 per minute of control experiment • 39.2: millimolar absorbance coefficient (mM^−1·cm^−1) of quinoneimine pigment generated through reaction • 0.5: molar number of quinoneimine pigment generated by 1 mol of hydrogen peroxide • 0.6: volume (mL) of whole reaction solution • df: dilution factor • 0.2: volume (mL) of enzyme solution

B1: PenOX2: protein having the amino acid sequence of SEQ ID NO: 4, pentosidine oxidase from Sarocladium sp., gene g10122; recombinant from Aspergillus sojae (protein, listed as Sarocladium sp.)
chain: MFTPKAWIPLLALSREVFSNPTSASHSISFHGLLGVSSESVHNIHLTYGDAFPHGDFRVVFGDCGMTSEDELHHEVASLSTKMESAPDRLVWLVPKDVRENGCLHAFSEGVLLGRSEPVAFTEPLRKRESLSEIGDSDGLWFSGIRYLQSSNLTSVKAAEAKEKKIGIVGGGISGLMTSLLLTSVGMTNWHIIEATERVGGRIRTKYMNGTSPDDYQYQEMGPMRFPVEVKYNDTNETLPIQDHKMVFQLAEVLNEMNGNDTDLAVKFIPWTQNNPNTPANSRGYRLPDGRIPTAAQIAQNPSILPAAANASDPQDAELGKESLERLSDLTPERMRNISANIFKAHRDAIDRGLFHWSEAAYLRYQLGLDDDTVDFVAASDNYPMFPDWWHAVYFAATKWLTIDKGLDSLSRAFVPHVKDKITYGRKIEAMQWNESTSKISLSWRESPLAAAKSDEYDYAVVAVPFSKVRLWKRPAYSNLLTRAIGKLNYEQACKVALLYETRFWEHQEIPIFGGCGSVDIPGIGGVCYPSYEINSTRPGVILSSYITGTEARSVVALSEEDHVAMVQRAMVEVHGPMADEQWTGIYDRLCWEVDENAAGGWASPTVGQQELFIPAYHKTELNTIFIGEHTSITHGWIFSALESSVRGTTQLLLDLGLVDEAKQIVETWMARWITV
temperature up to which enzyme was stable [1]: about 30 °C | pentosidine oxidation activity [2]: exhibits the pentosidine oxidation activity | residual activity relative to PenOX2 stored at 4° C. ([3]; pH range 4.0 to 9.0, FIG. 10): ≥ 60% | residual activity relative to PenOX2 stored at 4° C. ([3]; pH range 4.5 to 7.5, FIG. 10): ≥ 90% | pH of highest activity (most suitable optimum pH) ([4]; 37° C., FIG. 7): 7.5 pH | activity relative to highest activity ([4]; at 37° C. to 50° C., pH 7.5): ≥ 80% | activity relative to value in potassium phosphate buffer of around pH 7.5 ([4]; at pH 6.5 to 8.0, 37° C.): ≥ 70% | Km ([4]; pH 7.5, 50 mM potassium phosphate, 37° C., Lineweaver-Burk plot, FIG. 11): 140 µM | specific activity against pentosidine ([4]; pH 7.5, 50 mM, 37° C., protein by Bradford method): 29.1 U/mg | activity value against pentosidine ([4]; potassium phosphate buffer pH 7.5, 50 mM, 37° C.): 7.8 U/mL | temperature of highest activity ([4]; potassium phosphate buffer pH 7.5, 50 mM, FIG. 8): around 50 °C | L-arginine oxidation activity of concentrate of purified PenOX2 solution [5]: 24 U/mL
